Assay: soluble on expression in E. coli; label from the status in PepcDB or PDB records

Sequence | soluble on expression in E. coli
MRIARRAVEEWVEHGRRLDVEAGGKLGRPGAAFVTLERRSGDGWELRGCIGVVRPVLPLVEAVVTAAVDAASSDPRFEPLSREELDRVRVEVTVLGSMEPLPKKPHERPALVEVGLHGLYVEKPPYAGLLLPQVAVDEGWDPILFLTWACIKAGLPGTCWLREDVEIYRFRAAVWRETEPRGPVVRRDLAREAAAKGVNARVSTHISSCKSLEHHHHHHTHISSCKSLEHHHHHHTHISSCKSLEHHHHHHTHISSCKSLEHHHHHHTHISSCKSLEHHHHHHTHISSCKSLEHHHHHHTHISSCKSLEHHHHHH | not soluble
AAHQLTIVHLEARDIDRPNPQLEIAPKEGTPIEGVLYQLYQLKSTEDGDLLAHWNSLTITELKKQAQQVFEATTNQQGKATFNQLPDGIYYGLAVKAGEKNRNVSAFLVDLSEDKVIYPKIIWSTGELDLLKVGVDGDTKKPLAGVVFELYEKNGRTPIRVKNGVHSQDIDAAKHLETDSSGHIRISGLIHGDYVLKEIETQSGYQIGQAETAVTIEKSKTVTVTIENKKVPTPKVPSR | soluble
KGDDNYYIIFTSGTTGQPKGVQISHDNLLSFTNWMIEDAAFDVPKQPQMLAQPPYSFDLSVMYWAPTLALGGTLFALPKELVADFKQLFTTIAQLPVGIWTSTPSFADMAMLSDDFCQAKMPALTHFYFDGEELTVSTARKLFERFPSAKIINAYGPTEATVALSAIEITREMVDNYT | not soluble
FFALDYKRTEYVQYEDDEYYYYVKAVPKLNVASEDVRIKHINAKKTKKTSDIRDMKKTSSHRAESGYQAASAEEDDDILFYDNDDK | not soluble
MPESSRDKGNAAISGNRSVLSIASPTKLNILSSDWSRNQGKVSKNSLKRSSSLNIRNSKRPSLQASANSIYSRPKITIGAPPLIRRDSSFFKDEFDAKKDKATFSAYSSRSYPTIGSESVVSQTSLSQPTTSREVDEQFTVAADRYIPILQGASQNKVDPETLHEALPPPNASPISHLRAQTKIVFKQNVAEACGLDMNKRILQYMPEPPKCSSLRQKSYIMKKRTHYSYQQEQKIPDLIKLRKINTNPERILDAPGFQDDFYLNLLSWSKKNVLAIALDTALYLWNATTGDVSLLTDFENTTICSVTWSDDDCHISIGKEDGNTEIWDVETMSLIRTMRSGLGVRIGSLSWLDTLIATGSRSGEIQINDVRIKQHIVSTWAEHTGEVCGLSYKSDGLQLASGGNDNTVMIWDTRTSLPQFSKKTHTAAVKALSWCPYSPNILASGGGQTDKHIHFWNSITGARVGSINTGSQVSSLHWGQSHTSTNGGMMNKEIVATGGNPENAISVYNYETKFKVAEVVHAHEARICCSQLSPDGTTLATVGGDENLKFYKIFDPRCTGRSREDGLMDGMLGLIGKEGCRTNDKENRSKNSSEIHTRRPSSTSQYLIR | not soluble
MLPLIYHSIYSRLELPEGHRYPIMKYQYLYEEVRRDVQAEWVQFFEPQALSIEAIKRVHDADYVDLLAQGNMPAAKMRRIGFPWSEALITRTLTSAAG | not soluble
MGSDKIHHHHHHMSRLAHNKALPYKIIVDLSFHRTRLPSDVSSLIKFEQRPAIINIHGLLGSHVMFHSLNKLLSRKLDADIFSVDVRNHGISPKAIPYDYTTLTNDLIYFIETHIGLERPIYLLGFSMGGKIALLTTLYKNINIRKCISIDLPPYETPELDPMILQNYDLIMRIIRRDVKILRGSPSWQKKVLELFKSLECNKRKCGGAVALYFANGFLSVKSNNVHQAQLHYEQQQHDPYINYSMPLSSMPNLLDEVKKWPDLSNQRDFFQKGTASRKVLFMKGLQSNFINNDYSLLRYNFPCADVREFNTGHNLLLENPEDSFKCILNFFAEETLDFE | not soluble
MGSDKIHHHHHHMINQVYQLVAPRQFEVTYNNVDIYSDYVIVRPLYMSICAADQRYYTGSRDENVLSQKLPMSLIHEGVGEVVFDSKGVFNKGTKVVMVPNTPTEKDDVIAENYLKSSYFRSSGHDGFMQDFVLLNHDRAVPLPDDIDLSIISYTELVTVSLHAIRRFEKKSISNKNTFGIWGDGNLGYITAILLRKLYPESKIYVFGKTDYKLSHFSFVDDVFFINKIPEGLTFDHAFECVGGRGSQSAINQMIDYISPEGSIALLGVSEFPVEVNTRLVLEKGLTLIGSSRSGSKDFQDVVDLYIQYPDIVDKLALLKGQEYEIATINDLTEAFEADLSTSWGKTVLKWIM | not soluble
MARTLFLEEGPMFFEKIAPYTYRIPRQGKMRVDAVFFASKEILKDLEAENYASLQQLMNVATLPGIVEPALAMPDIHWGYGFPIGGVAAFDPEEGGVVSPGGVGFDINCGVRLLASHLTLEDLLPRQKELADALYRLVPSGVGSERRDVRFSKRELKEILKEGAGWLVKRGYGYPEDVRFIESQGRLPWANPDKVSERAFERGAPQIGTLGSGNHFLEVQYVDEVYDEEAALAFGLFKGQVTVLIHTGSRGLGHQVCQDYVERFLKVAPRYGIELVDKQLAAAPIKSPEGQDYLQAMAAAANFAFANRQLIAHFVREAFEKVGFTPRDHGLRVLYDLAHNNAKFEEHRGRRVLVHRKGATRAFGPGHPEVPEEYRRVGQPVLVPGDMGRYSYVLAGTEKAMEVSFGSSCHGAGRKMSRHQAKKVARERNLVKELAERGILVRAATRATVDEEMPEAYKDVSLVVEAVEGAGIGKKVARLRPLIVVKG | soluble
MARKNQKAPWEPEEEIIWVSKSEMKRDMEELQKLGEELVGLKPAVLEKFPLSEDLREAIADAQRFKNEARRRQLQRIGKLMRYEDPEPIQAALDKVRNKHSQATAALHKLEMLRDRVVEEGDKAIDDVMELYPEADRQRLRQLARQAAKEKKAGKPAKSYREIFQILKALNEEE | soluble
MGHHHHHHSHMTNTNEAKPVNVLSAEVMITTAFQDADPMGVVYHGNYFRFFEKARHEMLEKIGYSYRDMMASGYVWPIIDTRVKYVKSIPYDHKIRVEATLTEWENRMRVDYVIYDAETNVRMTKAHTMQVAVSIETEEMCFVSPRIFTDKVEAYHNA | soluble
MKLARFLAKGRVHQGVYREGLLLDEAGEAHRPEDVTWLLPFTPGKILGVALNYADHAEELGLSRPEEPALFWKPNTSLLPHKGVVLYPKGARFVHYEVELAVVVGRPMKRVRAKDALDYVLGYTIANDLVARDYVTNTFRPPIRAKGRDTFLPLGPFLVVEEVEDPQDLWLRAYVNGELRQEGHTSRMLYSVAELLEFISEFMTLEPYDVLLTGTPKGISQVRPGDVMRLEIEGLGALENPIEEEP | soluble
MYSEERRRQIASLTAVEGRVNVTELAARFDVTAETIRRDLAVLDREGVVHRVHGGAVANQTFQTAEFSLDTRSRSASGAKNSIAHAALSYLPEAQGGLFLDAGTTTAALAELLAAQPFAKHWSIVTNSLSIALTLANSGLDEIQLLGGSVRAITQAVVGDTALRTLALMRADVAFIGTNALTIDHGLSTADSQEAAIKSAMITNAHKVVVLCDSTKMGTDYLVSFGSISDIDVIITDANAPESFVKALRDRDVEVIIALEHHHHHH | soluble
MTEPWIAFPPEVHSAMLNYGAGVGPMLISATQNGELSAQYAEAASEVEELLGVVASEGWQGQAAEAFVAAYMPFLAWLIQASADCVEMAAQQHVVIEAYTAAVELMPTQVELAANQIKLAVLVATNFFGINTIPIAINEAEYVEMWVRAATTMATYSTVSRSALSAMPHTSPPPLILKSDELLPDTGEDSDEDGHNHGGHSHGGHARMIDNFFAEILRGVSAGRIVWDPVNGTLNGLDYDDYVYPGHAIWWLARGLEFFQDGEQFGELLFTNPTGAFQFLLYVVVVDLPTHIAQIATWLGQYPQLLSAALTGVIAHLGAITGLAGLSGLSAIPSAAIPAVVPELTPVAAAPPMLAVAGVGPAVAAPGMLPASAPAPAAAAGATAAGPTPPATGFGGFPPYLVGGGGPGIGFGSGQSAHAKAAASDSAAAESAAQASARAQARAARRGRSAAKARGHRDEFVTMDMGFDAAAPAPEHQPGARASDCGAGPIGFAGTVRKEAVVKAAGLTTLAGDDFGGGPTMPMMPGTWTHDQGVFDEHR | not soluble
MDFQIEEDRLGMRIQSETIELTKDEKGVVGISIGGGGPYCPCVYVVQVFDKSPAFKDGRIRCGDEIVAINGITVKGERKSAVAQLIQVSLNPVKITINKLEEANTKGKTLDILIKKVKHKVVEFVDQDSADALGLSRAILTNDPLAEKEKILEENAEFYRHLVAYFGDMFQYQQKISECQKEFGSIFCDLAAHEKQQTANEAFSSFGDKHRMIAKKQSESAVPLQKMVSDLQVYIDHVVPDTRLTIKKYLDVKYEYLSYCLKLKEMDDEEVEFVAIQEPLYRVETGNYEYRVMLRCRQECRARFMKMRDDVMVKIELLDQKHVRDIAQHLAIFAKTMAKCQQECAEILKERIDVPIEIDLEQLNLNMNTSDGKANGEEEMGQDAIVLNDNPLEGDLIDVNDIGSSTEFNEPRISLRRDSQNDTSQPLLGAPDSPLEELSLIDIS | not soluble
MAELPAKRRFTRIDRLPPYVFNITSELKMAARRRGEDIIDFSMGNPDGPTPPHIVEKMCSVAQREDTHGYSTSRGIPCLRRAISRWYADRYQVDIDPENEAIVTIGSKEGLAHLMLATLDHGDTVLVPNPSYPIHIYGAVIAGAQVRSVPLTEGIDFFGELERAIRETIPKPKMMILGFPSNPTAQCVELDFFERVVALAKQYDVLVVHDLAYADIVYDGWKAPSIMQVPGAKDIAVEFFTLSKSYNMAGWRIGFMVGNPELVSALARIKSYHDYGTFTPLQVAAIAALEGDQQCVRDIAEQYRQRRNALVRGLHEAGWMVDNPKASMYVWAKIPEPYAHLGSLEFAKRLLAEAKVCVSPGIGFGDYGDTHVRFALIENQDRIRQAVRGIKSMFRADGLLKPGKSSPNEMA | not soluble
MGSDKIHHHHHHMSAFYDLYETPDPNDTGEKQPLHARIVPSGTYSKKDFIERVSRHQPFPHNIIEGVLGAVVDELAEALADGYIVELGELGHFSISLKCTHKVMTKKEIRAESIRFDNVHLRTSKEFKKKIKREIELERVENSNEKTHNAKISIEDRLQMLQEFLKKNGGITRIEYSRLTGLPRLKAIDDLNTFIKEGTLRKRGAGRTVFYVWKQKE | not soluble
GGRGGFGGRGGFGGRGGFG | soluble
MSRPRKRLAGTSGSDKGLSGKRTKTENSGEALAKVEDSNPQKTSATKNCLKNLSSHWLMKSEPESRLEKGVDVKFSIEDLKAQPKQTTCWDGVRNYQARNFLRAMKLGEEAFFYHSNCKEPGIAGLMKIVKEAYPDHTQFEKNNPHYDPSSKEDNPKWSMVDVQFVRMMKRFIPLAELKSYHQAHKATGGPLKNMVLFTRQRLSIQPLTQEEFDFVLSLEEKEPS | soluble
MGRKEEDDCSSWKKQTTNIRKTFIFMEVLGSGAFSEVFLVKQRLTGKLFALKCIKKSPAFRDSSLENEIAVLKKIKHENIVTLEDIYESTTHYYLVMQLVSGGELFDRILERGVYTEKDASLVIQQVLSAVKYLHENGIVHRDLKPENLLYLTPEENSKIMITDFGLSKMEQNGIMSTACGTPGYVAPEVLAQKPYSKAVDCWSIGVITYILLCGYPPFYEETESKLFEKIKEGYYEFESPFWDDISESAKDFICHLLEKDPNERYTCEKALSHPWIDGNTALHRDIYPSVSLQIQKNFAKSKWRQAFNAAAVVHHMRKLHMNLHSPGVRPEVENRPPETQASETSRPSSPEITITEAPVLDHSVALPALTQLPCQHGRRPTAPGGRSLNCLVNGSLHISSSLVPMHQGSLAAGPCGCCSSCLNIGSKGKSSYCSEPTLLKKANKKQNFKSEVMVPVKASGSSHCRAGQTGVCLIM | soluble
